Data published in PMC11994318, “In vitro characterization of the yeast DEAH/RHA RNA helicase Dhr1” (The Journal of Biological Chemistry, 2025).

Molecular target: T1, Utp14-G (aa 710–800), fusion to maltose binding protein (Saccharomyces cerevisiae, UniProt Q04500 710-800)
T1 construct: Purified as a fusion to MBP; the tag is cleavable with TEV protease but no cleavage is described; source: E. coli Codon+ BL21 (DE3) RIL (AJE854), purified (HisTrap HP, HiTrap Q HP); not shown: MBP, N-terminal, kept
T1 sequence (looked up): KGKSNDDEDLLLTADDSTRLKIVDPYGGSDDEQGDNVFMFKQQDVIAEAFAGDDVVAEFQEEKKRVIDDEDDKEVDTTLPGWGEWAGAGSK
Experiment: mass photometry; Dhr1 variant and Utp14-G mixed at a 1:1 ratio; TwoMP instrument, room temperature (25.3 °C); 40 mM Tris–HCl pH 8.0, 40 mM KCl, 150 mM NaCl, 2 mM NaOAc, 2 mM DTT, 10 mM MgCl2, 4% glycerol
Settings: both partners purified

B1: ΔN-Dhr1-ΔSKTTD (domain or fragment, Saccharomyces cerevisiae, UniProt Q04217 376-1267, looked up)
chain: VEVSRSDEIQKARIQLPVFGEEHKIMEAIHHNDVVIICGETGSGKTTQVPQFLYEAGFGAEDSPDYPGMVGITQPRRVAAVSMAERVANELGDHGHKVGYQIRFDSTAKEDTKVKFMTDGVLLREMMHDFKLTKYSSIIIDEAHERNINTDILIGMLSRCVRLRAKLHKENPIEHKKLKLIIMSATLRVSDFSENKTLFPIAPPVLQVDARQFPVSIHFNRRTAFNYTDEAFRKTCKIHQKLPPGAILVFLTGQQEITHMVKRLRKEFPFKKNSKYNKDLETPVSKMGINLEAEDIDFSVQVIDQDKFKSAIRYEEDEGNSGNGEDEEDEEEEGFEEVLTEGQTANDPLYVLPLYSLLPTKEQMRVFQKPPQGSRLCIVATNVAETSLTIPGVRYVVDSGRSKERKYNESNGVQSFEVGWVSKASANQRSGRAGRTGPGHCYRLYSSAVFEHDFEQFSKPEILRMPVESIVLQMKSMAIHNIINFPFPTPPDRVALSKAIQLLQYLGALDNKEMITEDGKKMSLFPLSPRFSKMLLVSDEKACLPYIVAIVSALSVGDPFINEFELGINEISRKPNPDENLDDKIREHDESTPGMDPELKKELRSKFYKSRSQFSKLDKFSDVFRLLSVVSAMDYVPKEQKEIFMKKNFLRGKLMEEIVKLRKQLMYIIKSNTSKENIAVVIRNEDLKSDIPSVIQIKLLKQMICAGFVDHVAVRADVLFPDDAKITNRTSIINIPYIPVLATRTPNIEDCFVYIHPTSILNNLGEMPPKYMLYYSLHLGGNNKTRMNTLCDIASTPLANIARKGLLLTYSKPLTGQGLKTVNLSPTERYCYVVPRFGSTVDNDLKIGWDLNPIAVHQKKQKGQWTVIKFITRKGFQTITGEEKEKK
notes: Dhr1 (Ecm16) of Saccharomyces cerevisiae, residues 1-375 deleted and the five residues SKTTD (aa 666-670) of loop 1 deleted; also called ΔN-ΔSKTTD; ΔNΔSKTTD; source: E. coli Codon+ BL21 (DE3) RIL (AJE854), purified (HisTrap FF, HiTrap Capto SP)
percent complex: 48%

B2: ΔN-Dhr1-WT (Δ1 to 375-Dhr1) (domain or fragment, Saccharomyces cerevisiae, UniProt Q04217 376-1267, looked up)
chain: VEVSRSDEIQKARIQLPVFGEEHKIMEAIHHNDVVIICGETGSGKTTQVPQFLYEAGFGAEDSPDYPGMVGITQPRRVAAVSMAERVANELGDHGHKVGYQIRFDSTAKEDTKVKFMTDGVLLREMMHDFKLTKYSSIIIDEAHERNINTDILIGMLSRCVRLRAKLHKENPIEHKKLKLIIMSATLRVSDFSENKTLFPIAPPVLQVDARQFPVSIHFNRRTAFNYTDEAFRKTCKIHQKLPPGAILVFLTGQQEITHMVKRLRKEFPFKKNSKYNKDLETPVSKMGINSKTTDLEAEDIDFSVQVIDQDKFKSAIRYEEDEGNSGNGEDEEDEEEEGFEEVLTEGQTANDPLYVLPLYSLLPTKEQMRVFQKPPQGSRLCIVATNVAETSLTIPGVRYVVDSGRSKERKYNESNGVQSFEVGWVSKASANQRSGRAGRTGPGHCYRLYSSAVFEHDFEQFSKPEILRMPVESIVLQMKSMAIHNIINFPFPTPPDRVALSKAIQLLQYLGALDNKEMITEDGKKMSLFPLSPRFSKMLLVSDEKACLPYIVAIVSALSVGDPFINEFELGINEISRKPNPDENLDDKIREHDESTPGMDPELKKELRSKFYKSRSQFSKLDKFSDVFRLLSVVSAMDYVPKEQKEIFMKKNFLRGKLMEEIVKLRKQLMYIIKSNTSKENIAVVIRNEDLKSDIPSVIQIKLLKQMICAGFVDHVAVRADVLFPDDAKITNRTSIINIPYIPVLATRTPNIEDCFVYIHPTSILNNLGEMPPKYMLYYSLHLGGNNKTRMNTLCDIASTPLANIARKGLLLTYSKPLTGQGLKTVNLSPTERYCYVVPRFGSTVDNDLKIGWDLNPIAVHQKKQKGQWTVIKFITRKGFQTITGEEKEKK
notes: Dhr1 (Ecm16), DEAH/RHA RNA helicase of Saccharomyces cerevisiae, residues 1-375 deleted; Cloned into pET21a(+) with a C-terminal Hisx6 tag; also called ΔN-WT; dhr1-Δ1–375 (ΔN); source: E. coli Codon+ BL21 (DE3) RIL (AJE854), purified (HisTrap FF, HiTrap Capto SP)
percent complex: 23%

B3: ΔN-Dhr1-YCK (RecA2 surface mutant) (domain or fragment, Saccharomyces cerevisiae, UniProt Q04217 376-1267, looked up)
chain: VEVSRSDEIQKARIQLPVFGEEHKIMEAIHHNDVVIICGETGSGKTTQVPQFLYEAGFGAEDSPDYPGMVGITQPRRVAAVSMAERVANELGDHGHKVGYQIRFDSTAKEDTKVKFMTDGVLLREMMHDFKLTKYSSIIIDEAHERNINTDILIGMLSRCVRLRAKLHKENPIEHKKLKLIIMSATLRVSDFSENKTLFPIAPPVLQVDARQFPVSIYFNCRTAFNYTDEAFRKTCKIHQKLPPGAILVFLTGQQEITHMVKRLRKEFPFKKNSKYNKDLETPVSKMGINSKTTDLEAEDIDFSVQVIDQDKFKSAIRYEEDEGNSGNGEDEEDEEEEGFEEVLTEGQTANDPLYVLPLYSLLPTKEQMRVFQKPPQGSRLCIVATNVAETSLTIPGVRYVVDSGRSKERKYNESNGVQSFEVGWVSKASANQRSGRAGRTGPGHCYRLYSSAVFKHDFEQFSKPEILRMPVESIVLQMKSMAIHNIINFPFPTPPDRVALSKAIQLLQYLGALDNKEMITEDGKKMSLFPLSPRFSKMLLVSDEKACLPYIVAIVSALSVGDPFINEFELGINEISRKPNPDENLDDKIREHDESTPGMDPELKKELRSKFYKSRSQFSKLDKFSDVFRLLSVVSAMDYVPKEQKEIFMKKNFLRGKLMEEIVKLRKQLMYIIKSNTSKENIAVVIRNEDLKSDIPSVIQIKLLKQMICAGFVDHVAVRADVLFPDDAKITNRTSIINIPYIPVLATRTPNIEDCFVYIHPTSILNNLGEMPPKYMLYYSLHLGGNNKTRMNTLCDIASTPLANIARKGLLLTYSKPLTGQGLKTVNLSPTERYCYVVPRFGSTVDNDLKIGWDLNPIAVHQKKQKGQWTVIKFITRKGFQTITGEEKEKK
notes: Dhr1 (Ecm16) of Saccharomyces cerevisiae, residues 1-375 deleted, with three mutations on the RecA2 surface; also called ΔN-Dhr1-RecA2; ΔN-Dhr1-RecA2-mutants; source: E. coli Codon+ BL21 (DE3) RIL (AJE854), purified (HisTrap FF, HiTrap Capto SP)
percent complex: 16%
